Experimental data taken from patent US20010019714A1 (priority 1998, published 2001).

Target: T1, HLA-A2 on T2 cells (Homo sapiens, UniProt P04439, D140Y/D185E/D98H/E176V/E277Q/G131W/G231S/I119V/I121R/I166T/I218V/L300P/L318F/N151K/N90K/P208A/P217A/Q86G/Q94H/R138H/R169H/T345S)
T1 construct: T2 cell line expressing the HLA-A2 molecules; endogenous in cells; host or cells: T2 cell line (TAP-deficient), from Dr Peter Creswell, Yale University
Experiment: peptide-induced MHC class 1 assembly assay (HLA-A2 binding and stabilization, FACS)
Format: cell-based
Details: for binding to HLA-A2 on T2 cells (shift of fluorescent peak): antibody BB7.2, FACS, FIG. 1; for order of potency by comparison of fluorescence indices: fluorescence index = mean fluorescence of peptide treated T2 cells / untreated T2 cells
Method: Location of the potential CTL containing motifs of the HIV-1(LAI) Rev protein has been predicted by the reported peptide-binding motif algorithms. […] The ability of the peptides containing these motifs to bind and stablize membrane-bound HLA-A2 molecule was assessed using the T2 cell line. The cell line has been well documented to have defective TAP transporter function resulting in the majority of the intracellularly generated peptides being unable to be transported into the endoplasmic reticulum to associate with the newly synthesized HLA class 1 molecules, i.e. HLA-A2 (see references 4, 5). […] Upon interaction with suitable peptides introduced exogenously, the stability of the HLA-A2 molecules can be restored.
T2 cell line expressing the HLA-A2 molecules was obtained from Dr Peter Creswell at the Howard Hughes Research Institute of Yale University. The cells were propagated in Iscove's complete medium (Iscove's medium supplemented with 10% heat-inactivated bovine serum, 120.0 units per ml of penicilin G sodium, 120 μg per ml of streptomycin sulphate, and 0.35 mg per ml of L-glutamine). The ability of individual 8 to 13 mer peptides, prepared as described in Example 1 and identified in Table 1, to bind and modulate the stability of the A2 molecules on T2 cells was determined using a peptide-induced MHC class 1 assembly assay, which was modified from a protocol described by Yuping Deng et al. (ref. 6).
In essence, 1×10^6 T2 cells were incubated with a specified concentration of the test peptide in 250.0 μl of Iscove's serum-free medium (Iscove's medium supplemented with 120.0 units per ml of penicillin G sodium, 120.0 ug per ml of streptomycin sulphate and 0.35 mg per ml of L-glutamine) in a sterile Eppendorf tube at 37° C. overnight. The cells were then incubated on ice for 30 min before 1.0 ml of Iscove's complete medium supplemented with 5.0 ug per ml of brefeldin A, 12.5 ug per ml of anisomycin and 5.0 ug per ml of cyclohexamide was added. The samples were then incubated for 3.0 hr in a 37° C. CO2 incubator.
In the presence of the drugs, further protein synthesis and intracellular delivery of HLA-A2 molecules to the cell surface are inhibited, and de-stabilization of the conformation of the membrane-bound class 1 molecules at the physiological temperature occurs.
The cells were then washed twice with ice-cold PBA (a buffer containing 0.9% sodium chloride, 0.5% bovine serum albumin and 0.02% sodium azide). 100.0 ul of PBA containing 5.0 ug of a conformation-sensitive HLA-A2-specific mouse monoclonal antibody, BB7.2 (ref. 7), was then added to each test sample. The reaction was allowed to take place on ice for 45 min. The cells were then washed three times with ice-cold PBA.
The binding of BB7.2 was then detected by adding […] containing 1.0 ug of goat anti-mouse IgG F(ab′) fluorescein (FITC) conjugate to each cell sample. After 30 min incubation on ice, the cells were washed twice with PBA, and twice again with PBS, pH 7.2. Cells were fixed immediately after washing was completed by adding 100.0 ul of 1.0% paraformaldehyde to the cell pellet. The cells were gently resuspended and were FACS analysed usually within three days after the experiments were completed.
The fluorescence index, which is an indicator for increased density of membrane-bound A2 molecules, was calculated by dividing the mean fluorescence of an experimental sample (peptide treated T2 cells) by the mean fluorescence of the control sample (T2 cells not treated with peptide).

| Sequence | binding to HLA-A2 on T2 cells (shift of fluorescent peak) | order of potency by comparison of fluorescence indices |
| --- | --- | --- |
| ILVESPAVL [CLP-72] | capable of binding to HLA-A2 on T2 cells | CLP-177>CLP-72>CLP-178>CLP-182 |
| PLQLPPLERLIL [CLP-182] | capable of binding to HLA-A2 on T2 cells | CLP-177>CLP-72>CLP-178>CLP-182 |
| YLGRSAEPV [CLP-177] | capable of binding to HLA-A2 on T2 cells | CLP-177>CLP-72>CLP-178>CLP-182 |
| YLGRSAEPVPL [CLP-178] | capable of binding to HLA-A2 on T2 cells | CLP-177>CLP-72>CLP-178>CLP-182 |
